The target in experiment [1] is His-CRM1 recombinant protein (UniProt O14980). The experiment can be described thus: SPR; with TLNC1 (lncRNA). The following applies: natural protein; chains chain; remark: other sources report otherwise. Background: Surface plasmon resonance follows binding to a sensor surface in real time, without labels.
For experiment [2] the target is unchanged. The experiment can be described thus: SPR; without TLNC1. Particulars: natural protein; chains chain; remark: other sources report otherwise.

UniProt O14980, sequence (O14980 whole entry): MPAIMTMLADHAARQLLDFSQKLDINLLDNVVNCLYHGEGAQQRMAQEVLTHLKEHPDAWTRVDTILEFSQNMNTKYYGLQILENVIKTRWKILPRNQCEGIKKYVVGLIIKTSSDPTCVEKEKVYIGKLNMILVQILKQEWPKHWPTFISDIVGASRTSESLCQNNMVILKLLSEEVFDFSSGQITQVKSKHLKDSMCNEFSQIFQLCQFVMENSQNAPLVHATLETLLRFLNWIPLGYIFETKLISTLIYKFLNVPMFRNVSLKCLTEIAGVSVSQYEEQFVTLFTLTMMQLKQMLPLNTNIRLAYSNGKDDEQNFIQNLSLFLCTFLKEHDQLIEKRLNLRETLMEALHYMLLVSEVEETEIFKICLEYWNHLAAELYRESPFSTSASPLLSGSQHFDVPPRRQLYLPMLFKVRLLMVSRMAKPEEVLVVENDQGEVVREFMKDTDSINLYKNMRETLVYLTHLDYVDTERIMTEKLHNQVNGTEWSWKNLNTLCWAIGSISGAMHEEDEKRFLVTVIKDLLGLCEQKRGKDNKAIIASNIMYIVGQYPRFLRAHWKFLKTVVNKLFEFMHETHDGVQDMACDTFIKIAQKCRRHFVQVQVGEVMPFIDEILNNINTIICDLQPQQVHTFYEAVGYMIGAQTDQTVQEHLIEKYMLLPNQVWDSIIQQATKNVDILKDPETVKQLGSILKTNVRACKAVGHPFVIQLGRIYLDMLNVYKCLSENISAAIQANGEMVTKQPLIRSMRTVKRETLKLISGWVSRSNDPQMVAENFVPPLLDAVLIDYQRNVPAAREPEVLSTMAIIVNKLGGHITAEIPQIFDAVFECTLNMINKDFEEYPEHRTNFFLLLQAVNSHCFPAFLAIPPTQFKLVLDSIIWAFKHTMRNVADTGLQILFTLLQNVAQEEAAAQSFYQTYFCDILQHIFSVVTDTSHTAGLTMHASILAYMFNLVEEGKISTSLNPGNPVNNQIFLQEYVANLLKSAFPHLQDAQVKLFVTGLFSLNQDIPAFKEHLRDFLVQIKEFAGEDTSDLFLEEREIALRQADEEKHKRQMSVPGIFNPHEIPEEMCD

As to “His-TPR recombinant protein, P12270 1-2363”, the figures for the Kd in experiment [1] and in experiment [2] were 31.6 nM and 181 nM, respectively.

These data come from PMC9044722.
